In US20250205329A1:

Assays:
Experiment in all cases: BLI (Gator), antibody on protein A probe, F mutant supernatant held 1 h at 60° C.
[1] = biological target: RSV F protein mutant YK001Ag407 (RSV A) (RSV A) (UniProt P11209)
[2] = biological target: DS-CavI (positive control) RSV F protein
[3] = biological target: RSV F protein mutant YK001Ag411 (AVQ93588.1, RSV B) (RSV B)
[4] = biological target: RSV F protein mutant YK001Ag402 (RSV A) (UniProt P12568)
[5] = biological target: RSV F protein mutant YK001Ag399 (RSV A) (RSV A) (UniProt P11209)
[6] = biological target: SC-TM (positive control) RSV F protein
[7] = biological target: RSV F protein mutant YK001Ag406 (RSV A) (RSV A) (UniProt P11209)
[8] = biological target: RSV F protein mutant YK001Ag403 (RSV A) (UniProt P12568)
[9] = biological target: RSV F protein mutant YK001Ag401 (RSV A) (RSV A) (UniProt P11209)
[10] = biological target: RSV F protein mutant YK001Ag410 (AHV80758, RSV B) (RSV B)
[11] = biological target: RSV F protein mutant YK001Ag222 (RSV A) (UniProt P12568)
[12] = biological target: RSV F protein mutant YK001Ag400 (RSV A) (UniProt P12568)
[13] = biological target: RSV F protein mutant YK001Ag404 (RSV A) (RSV A) (UniProt P11209)

monoclonal antibody AM14
Activity of antibody AM14 after 1 h at 60° C. (%) [1]: 52.6%
Activity of antibody AM14 after 1 h at 60° C. (%) [2]: 9.9%
Activity of antibody AM14 after 1 h at 60° C. (%) [3]: 69.5%
Activity of antibody AM14 after 1 h at 60° C. (%) [4]: 28.6%
Activity of antibody AM14 after 1 h at 60° C. (%) [5]: 99.8%
Activity of antibody AM14 after 1 h at 60° C. (%) [6]: 1.3%
Activity of antibody AM14 after 1 h at 60° C. (%) [7]: 45.5%
Activity of antibody AM14 after 1 h at 60° C. (%) [8]: 81%
Activity of antibody AM14 after 1 h at 60° C. (%) [9]: 2.2%
Activity of antibody AM14 after 1 h at 60° C. (%) [10]: 67.7%
Activity of antibody AM14 after 1 h at 60° C. (%) [11]: 1.1%
Activity of antibody AM14 after 1 h at 60° C. (%) [12]: 1.4%
Activity of antibody AM14 after 1 h at 60° C. (%) [13]: 60.9%

monoclonal antibody D25
Activity of antibody D25 after 1 h at 60° C. (%) [1]: 77.2%
Activity of antibody D25 after 1 h at 60° C. (%) [2]: 103%
Activity of antibody D25 after 1 h at 60° C. (%) [3]: 91.4%
Activity of antibody D25 after 1 h at 60° C. (%) [4]: 84%
Activity of antibody D25 after 1 h at 60° C. (%) [5]: 80.8%
Activity of antibody D25 after 1 h at 60° C. (%) [6]: 21%
Activity of antibody D25 after 1 h at 60° C. (%) [7]: 60.4%
Activity of antibody D25 after 1 h at 60° C. (%) [8]: 89.7%
Activity of antibody D25 after 1 h at 60° C. (%) [9]: 20.8%
Activity of antibody D25 after 1 h at 60° C. (%) [10]: 88.7%
Activity of antibody D25 after 1 h at 60° C. (%) [11]: 5.8%
Activity of antibody D25 after 1 h at 60° C. (%) [12]: 15.6%
Activity of antibody D25 after 1 h at 60° C. (%) [13]: 75.4%
